Results published in paper doi:10.1101/2020.10.07.330233v1.

Substrate: O=[N+]([O-])c1ccc(O[C@@H]2O[C@H](CO)[C@@H](O)[C@H](O)[C@H]2O)cc1
Assay: purified protein
Conditions: 1 hour assay
[1] = average of two wild-type replicates (WT-1, WT-2)

Protein | Km [1] [mM] | kcat [1] [s⁻¹] | Km (technical triplicate) [mM] | kcat (technical triplicate) [s⁻¹]
β-glucosidase B (BglB) (Paenibacillus polymyxa) (protein) MSENTFIFPATFMWGTSTSSYQIEGGTDEGGRTPSIWDTFCQIPGKVIGGDCGDVACDHFHHFKEDVQLMKQLGFLHYRFSVAWPRIMPAAGIINEEGLLFYEHLLDEIELAGLIPMLTLYHWDLPQWIEDEGGWTQRETIQHFKTYASVIMDRFGERINWWNTINEPYCASILGYGTGEHAPGHENWREAFTAAHHILMCHGIASNLHKEKGLTGKIGITLNMEHVDAASERPEDVAAAIRRDGFINRWFAEPLFNGKYPEDMVEWYGTYLNGLDFVQPGDMELIQQPGDFLGINYYTRSIIRSTNDASLLQVEQVHMEEPVTDMGWEIHPESFYKLLTRIEKDFSKGLPILITENGAAMRDELVNGQIEDTGRHGYIEEHLKACHRFIEEGGQLKGYFVWSFLDNFEWAWGYSKRFGIVHINYETQERTPKQSALWFKQMMAKNGF | 9.8 ± 2.2 | 10.37 ± 0.763 | – | –
β-glucosidase B (BglB) (Paenibacillus polymyxa; A360S) (protein) MSENTFIFPATFMWGTSTSSYQIEGGTDEGGRTPSIWDTFCQIPGKVIGGDCGDVACDHFHHFKEDVQLMKQLGFLHYRFSVAWPRIMPAAGIINEEGLLFYEHLLDEIELAGLIPMLTLYHWDLPQWIEDEGGWTQRETIQHFKTYASVIMDRFGERINWWNTINEPYCASILGYGTGEHAPGHENWREAFTAAHHILMCHGIASNLHKEKGLTGKIGITLNMEHVDAASERPEDVAAAIRRDGFINRWFAEPLFNGKYPEDMVEWYGTYLNGLDFVQPGDMELIQQPGDFLGINYYTRSIIRSTNDASLLQVEQVHMEEPVTDMGWEIHPESFYKLLTRIEKDFSKGLPILITENGASMRDELVNGQIEDTGRHGYIEEHLKACHRFIEEGGQLKGYFVWSFLDNFEWAWGYSKRFGIVHINYETQERTPKQSALWFKQMMAKNGF | – | – | 12.7 ± 1.4 | 1.55 ± 0.0533
β-glucosidase B (BglB) (Paenibacillus polymyxa; I23A) (protein) MSENTFIFPATFMWGTSTSSYQAEGGTDEGGRTPSIWDTFCQIPGKVIGGDCGDVACDHFHHFKEDVQLMKQLGFLHYRFSVAWPRIMPAAGIINEEGLLFYEHLLDEIELAGLIPMLTLYHWDLPQWIEDEGGWTQRETIQHFKTYASVIMDRFGERINWWNTINEPYCASILGYGTGEHAPGHENWREAFTAAHHILMCHGIASNLHKEKGLTGKIGITLNMEHVDAASERPEDVAAAIRRDGFINRWFAEPLFNGKYPEDMVEWYGTYLNGLDFVQPGDMELIQQPGDFLGINYYTRSIIRSTNDASLLQVEQVHMEEPVTDMGWEIHPESFYKLLTRIEKDFSKGLPILITENGAAMRDELVNGQIEDTGRHGYIEEHLKACHRFIEEGGQLKGYFVWSFLDNFEWAWGYSKRFGIVHINYETQERTPKQSALWFKQMMAKNGF | – | – | 17.1 ± 1.1 | 1.54 ± 0.035
β-glucosidase B (BglB) (Paenibacillus polymyxa; I23V) (protein) MSENTFIFPATFMWGTSTSSYQVEGGTDEGGRTPSIWDTFCQIPGKVIGGDCGDVACDHFHHFKEDVQLMKQLGFLHYRFSVAWPRIMPAAGIINEEGLLFYEHLLDEIELAGLIPMLTLYHWDLPQWIEDEGGWTQRETIQHFKTYASVIMDRFGERINWWNTINEPYCASILGYGTGEHAPGHENWREAFTAAHHILMCHGIASNLHKEKGLTGKIGITLNMEHVDAASERPEDVAAAIRRDGFINRWFAEPLFNGKYPEDMVEWYGTYLNGLDFVQPGDMELIQQPGDFLGINYYTRSIIRSTNDASLLQVEQVHMEEPVTDMGWEIHPESFYKLLTRIEKDFSKGLPILITENGAAMRDELVNGQIEDTGRHGYIEEHLKACHRFIEEGGQLKGYFVWSFLDNFEWAWGYSKRFGIVHINYETQERTPKQSALWFKQMMAKNGF | – | – | 12.7 ± 0.53 | 9.4 ± 0.125
β-glucosidase B (BglB) (Paenibacillus polymyxa; I48K) (protein) MSENTFIFPATFMWGTSTSSYQIEGGTDEGGRTPSIWDTFCQIPGKVKGGDCGDVACDHFHHFKEDVQLMKQLGFLHYRFSVAWPRIMPAAGIINEEGLLFYEHLLDEIELAGLIPMLTLYHWDLPQWIEDEGGWTQRETIQHFKTYASVIMDRFGERINWWNTINEPYCASILGYGTGEHAPGHENWREAFTAAHHILMCHGIASNLHKEKGLTGKIGITLNMEHVDAASERPEDVAAAIRRDGFINRWFAEPLFNGKYPEDMVEWYGTYLNGLDFVQPGDMELIQQPGDFLGINYYTRSIIRSTNDASLLQVEQVHMEEPVTDMGWEIHPESFYKLLTRIEKDFSKGLPILITENGAAMRDELVNGQIEDTGRHGYIEEHLKACHRFIEEGGQLKGYFVWSFLDNFEWAWGYSKRFGIVHINYETQERTPKQSALWFKQMMAKNGF | – | – | 4.2 ± 0.1 | 4.998 ± 0.04
